Here are results for 23 sequences from the supplement of paper PMC11780869.

For this series, the system named is Bacillus subtilis. Briefly: cleaved RNA product abundance (RNA/gDNA barcode ratio) relative to median wild-type variant (ratio to wild type); higher = more accumulation of the downstream cleavage product. To be noted: cleavage site: cggR-gapA (positions -7 to +36 mutated). A digest of the protocol: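 Reporter mRNAs based on truncated aprE or tetM carried barcoded, mutagenized RNase Y cleavage-site windows built from oligos with a 9% error rate and were integrated into the B. subtilis chromosome. Cultures grew in LB at 37°C from OD600 0.0003 to 0.3. Cleaved RNA was gel-selected, reverse transcribed and barcode-sequenced together with genomic DNA barcodes, and UMIs were collapsed. Cleaved product abundance is the per-construct ratio of RNA to gDNA barcodes, scaled to the median of constructs carrying the unmutated site.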

The mark [1] stands for this setting: experiment (reporter, strain, medium): exp 2b: truncated aprE reporter, strain BJT200.
The mark [2] stands for this setting: experiment (reporter, strain, medium): exp 4a: truncated aprE reporter, strain BJT201 with 2% xylose (RNase J1 expressed).

As for “ACAGACGAAGGAGCCGCAAAGAATTTATTAAGGGATGAATAATCCCTCAATATAAACATCTCTCACTTATTTAAA”, the “cleaved RNA product abundance” value by setting is: under setting [1], 0.291; under setting [2], 0.683. For “ACAGACGAAGGAGCCGCAAAGAATTTATTAAGGGATGAATAATCCCTCAATATAAATAACTCTCACTTATTTAAA”, under setting [2], the “cleaved RNA product abundance” value turned out to be 0.544. “ACAGACGAAGGAGCCGCAAAGAATTTATTAAGGGATGAATAATCCCTCAATATAAATAGCTCTCACTTATTTAAA”: the “cleaved RNA product abundance” value under setting [2] was 0.327. Take “ACAGACGAAGGAGCCGCAAAGAATTTATTAAGGGATGAATAATCCCTCAATATAAATATCTCTCACTTATTAAAG”: under setting [2], the “cleaved RNA product abundance” value amounted to 0.836. As for “ACAGACGAAGGAGCCGCAAAGAATTTATTAAGGGATGAATAATCCCTCAATATAAATATCTCTCACTTATTTAAA”, the “cleaved RNA product abundance” value under setting [1] worked out at 0.775; the “cleaved RNA product abundance” value under setting [2] came out at 0.743; the “cleaved RNA product abundance” value (experiment (reporter, strain, medium): exp 6: tetM reporter, strain 168) is 0.623.

For “ACAGACGAAGGAGCCGCAAAGAATTTATTAAGGGATGAATAATCCCTCAATATAAATATTTCTCACTTATTTAAA”, the “cleaved RNA product abundance” value under setting [2] worked out at 0.259. For “ACAGACGAAGGAGCCGCAAAGAATTTATTAAGGGATGAATAATCCCTCAATATAAATGTCTCTCACTTATTTAAA”, under setting [2], the “cleaved RNA product abundance” value is 0.282. As for “ACAGACGAAGGAGCCGCAAAGAATTTATTAAGGGATGAATAATCCCTCAATATAAGTATCTCTCACTTATTTAAA”, under setting [2], the “cleaved RNA product abundance” value amounted to 0.216. Same read-out and setting: then “ACAGACGAAGGAGCCGCAAAGAATTTATTAAGGGATGAATAATCCCTCAATATAATTATCTCTCACTTATTTAAA”, with 0.354. Consider “ACAGACGAAGGAGCCGCAAAGAATTTATTAAGGGATGAATAATCCCTCAATATACATATCTCTCACTTATTTAAA”, for which the “cleaved RNA product abundance” value under setting [2] amounted to 0.606. In the case of “ACAGACGAAGGAGCCGCAAAGAATTTATTAAGGGATGAATAATCCCTCAATATAGATATCTCTCACTTATTTAAA”, under setting [2], the “cleaved RNA product abundance” value stood at 0.431. Regarding “ACAGACGAAGGAGCCGCAAAGAATTTATTAAGGGATGAATAATCCCTCAATATATATATCTCTCACTTATTTAAA”, the “cleaved RNA product abundance” value runs as follows: under setting [1], 0.649; under setting [2], 0.46. Take “ACAGACGAAGGAGCCGCAAAGAATTTATTAAGGGATGAATAATCCCTCAATATTAATATCTCTCACTTATTTAAA”: the “cleaved RNA product abundance” value under setting [1] is 0.109. “ACAGACGAAGGAGCCGCAAAGAATTTATTAAGGGATGAATAATCCCTCAATCTAAATATCTCTCACTTATTTAAA”: the “cleaved RNA product abundance” value under setting [2] came out at 0.102.

For “ACAGACGAAGGAGCCGCAAAGAATTTATTAAGGGATGAATAATCCCTCAATTTAAATATCTCTCACTTATTTAAA”, the “cleaved RNA product abundance” value was determined as 0.154 under setting [1] and 0.0947 under setting [2]. The matching figures for “ACAGACGAAGGAGCCGCAAAGAATTTATTAAGGGATGAATAATCCCTCACTATAAATATCTCTCACTTATTTAAA”: 0.193 and 0.283. Take “ACAGACGAAGGAGCCGCAAAGAATTTATTAAGGGATGAATAATCCCTCATTATAAATATCTCTCACTTATTTAAA”: the “cleaved RNA product abundance” value is, setting by setting: under setting [1], 0.278; under setting [2], 0.377.

As for “ACAGACGAAGGAGCCGCAAAGAATTTATTAAGGGATGAATAATCCCTCCATATAAATATCTCTCACTTATTTAAA”, the “cleaved RNA product abundance” value under setting [2] was 0.424.

Consider “ACAGACGAAGGAGCCGCAAAGAATTTATTAAGGGATGAATAATCCCTCGATATAAATATCTCTCACTTATTTAAA”, for which the “cleaved RNA product abundance” value under setting [2] stood at 0.422. Regarding “ACAGACGAAGGAGCCGCAAAGAATTTATTAAGGGATGAATAATCCCTCTATATAAATATCTCTCACTTATTTAAA”, the “cleaved RNA product abundance” value by setting is: under setting [1], 0.363; under setting [2], 0.543. As to “ACAGACGAAGGAGCCGCAAAGAATTTATTAAGGGATGAATAATCCCTTAATATAAATATCTCTCACTTATTTAAA”, the “cleaved RNA product abundance” value under setting [2] was 0.448.

For “ACAGACGAAGGAGCCGCAAAGAATTTATTAAGGGATGAATAATCCGTCAATATAAATATCTCTCACTTATTTAAA”, the “cleaved RNA product abundance” value under setting [2] amounted to 0.163. Consider “ACAGACGAAGGAGCCGCAAAGAATTTATTAAGGGATGAATAATCCTTCAATATAAATATCTCTCACTTATTTAAA”, for which the “cleaved RNA product abundance” value under setting [2] amounted to 0.397.
